Experimental data: US20220073643A1 (NANJING GENSCRIPT BIOTECH, published 2022)
Where a chain is given by its changes, count along the chain named.

B1: chimeric 241H10A1 (antibody, human IgG1, kappa, V domains shown)
VH: QVQLQQSGAELVKPGASVKLSCKASGYTFTSFGINWLRQRPEQGLEWIGWIFPGDGNSKYNENFKGKATLTTDKSSSTAYMQVTRLTSEDSAVYFCARFYYGNSFANWGQGTLVTVSA
VL: DIVMTQSPSSLTVTAGEKVTMSCKSSQSLLNSGNQKNYLTWYQQKPGQPPKLLIYWAATRESGVPDRFTGSGSGTDFTLTISSVQAEDLAVYYCQNDYFYPFTFGGGTKLELKR
notes: chimeric, human IgG1/kappa constant regions
B2: chimeric 182D10F1 (antibody, human IgG1, kappa, V domains shown)
VH: QAYLQQSGAELVRSGASVKMSCKASGYTFSSYNMHWVKQTPGQGLEWIGYIYPGNGGTNYNQKFKGKATLTADTSSSTAYMQISSLTSEDSAVYFCLTGRGFTYWGQGTLVTVSA
VL: B1 VL with S22N, L30F, W56R, A58S, F99S, F102L, G106V
notes: as for B1
B3: chimeric 201F4H6 (antibody, human IgG1, kappa, V domains shown)
VH: QVQLKESGPGLVAPSQSLSITCTVSGFSLTSYGVSWVRQPPGKGLECLGVIWAGGNTNYNSALMSRLSISKDKSKSQVFLKMNSLQTDDTAMYYCARVYYGNAMDYWGQGTSVTVSS
VL: B1 VL with N37S, K45R, A58S, Y93F, D97V, Y100F, G106S, L112T
notes: as for B1
B4: humanized 370E2B12C3-VH3 + VL1 (antibody, human IgG1, kappa, V domains shown)
VH: QVQLVESGGGVVQPGRSLRLSCAASGFSLTTYGVHWVRQAPGKGLEWVAVIWAGGSTNYNSALMSRFTISRDNSKNTLYLQMNSLRAEDTAVYYCARAAYYGNGLDYWGQGTMVTVSS
VL: DIVMTQSPDSLAVSLGERATINCKSSQTLLNSGNQKNYLTWYQQKPGQPPKLLIYWASTGESGVPDRFSGSGSGTDFTLTISSLQAEDVAVYYCQNAYFYPFTFGGGTKLEIKR
notes: humanized, human IgG1/kappa constant regions
B5: humanized 370E2B12C3-VH3 + VL2 (antibody, human IgG1, kappa, V domains shown)
VH: B4 VH
VL: DIVMTQSPLSLPVTPGEPASISCKSSQTLLNSGNQKNYLTWYLQKPGQSPQLLIYWASTGESGVPDRFSGSGSGTDFTLKISRVEAEDVGVYYCQNAYFYPFTFGGGTKVEIKR
notes: as for B4
B6: humanized 370E2B12C3-VH3 + VL3 (antibody, human IgG1, kappa, V domains shown)
VH: B4 VH
VL: B5 VL with I2V, P15L, E17Q, Y42F, L43Q, K45R, Q51R, L52R
notes: as for B4
B7: humanized 410H6H3-VH1.2 + VL1.1 (antibody, human IgG1, kappa, V domains shown)
VH: EVQLVESGGGLVQPGGSRRLSCAASGFTFSSSGMHWVRQAPGKGLEWVSYISSGSNTIYYADTLKGRFTISRDNAKNTLFLQMNSLRAEDTAVYYCARIYYGNSFVYWGQGTLVTVSS
VL: B4 VL with I21M, N22S, T28S, L52M, G60R, A97N, F99Y, F102L, G106Q
notes: as for B4
B8: humanized 410H6H3-VH1 + VL1 (antibody, human IgG1, kappa, V domains shown)
VH: B7 VH with R18L, T78S, F80Y
VL: B4 VL with T28S, G60R, A97N, F99Y, F102L, G106Q
notes: as for B4
B9: humanized 410H6H3-VH1.2 + VL1 (antibody, human IgG1, kappa, V domains shown)
VH: B7 VH
VL: B4 VL with T28S, G60R, A97N, F99Y, F102L, G106Q
notes: as for B4
B10: humanized 412B6E4-VH1.2 + VL1.1 (antibody, human IgG1, kappa, V domains shown)
VH: B7 VH with S32F, M34V, N56S, D62H, T63S, L64V, I99F, V106A
VL: B4 VL with I21M, N22S, T28S, L52M, G60R, F99T, F102L, G106Q
notes: as for B4
B11: humanized 412B6E4-VH1 + VL1.1 (antibody, human IgG1, kappa, V domains shown)
VH: EVQLVESGGGLVQPGGSLRLSCAASGFTFSSFGVHWVRQAPGKGLEWVSYISSGSSTIYYAHSVKGRFTISRDNAKNSLYLQMNSLRAEDTAVYYCARFYYGNSFAYWGQGTLVTVSS
VL: B4 VL with I21M, N22S, T28S, L52M, G60R, F99T, F102L, G106Q
notes: as for B4
B12: humanized 412B6E4-VH1.1 + VL1.1 (antibody, human IgG1, kappa, V domains shown)
VH: B11 VH with S49A, Y80F
VL: B4 VL with I21M, N22S, T28S, L52M, G60R, F99T, F102L, G106Q
notes: as for B4

Biological target: T1, human Claudin18.2 (human)
T1 construct: also called CLDN18.2
Experiment: FACS, Claudin18.2-HEK293 cells
Method: (§1) The binding of chimeric antibodies to Claudin18.2 expressed on HEK293 cells was determine by FACS analysis. Briefly, HEK293 cells expressing human Claudin18.2 as prepared in the foregoing Example were harvested and incubated with anti-Claudin18.2 mAbs at 4° C. for 40 min, followed by fluorophore (iFluor 647)-labeled goat […] IgG (H+L) secondary antibodies at 4° C. for 0.5 hour. The samples were then analyzed by flow cytometry.

Point of comparison: B3, EC50 1.36 nM. Against it:
- B1 — within 1.5-fold, 1.53 nM
- B2 — within 1.5-fold, 1.3 nM

Biological target: T1, human Claudin18.2
Experiment: FACS, Claudin18.2-HEK293 cells
Remark: another data set of the same source
Method: as §1
After initial screening of cell binding with transfected supernatants, the binding pattern of chimeric and up to 3 humanized antibodies on Claudin18.2 expressed on HEK293 cells were plotted with antibody in 3× serial dilutions, starting concentration of 45 μg/ml, following the protocol described in Example 3.

Point of comparison: B7, EC50 0.555 µg/mL. Against it:
- B4 — within 1.5-fold, 0.826 µg/mL
- B5 — within 1.5-fold, 0.794 µg/mL
- B6 — 2.1-fold higher, 1.17 µg/mL
- B8 — 1.7-fold lower, 0.33 µg/mL
- B9 — within 1.5-fold, 0.372 µg/mL
- B10 — within 1.5-fold, 0.512 µg/mL
- B11 — within 1.5-fold, 0.373 µg/mL
- B12 — within 1.5-fold, 0.571 µg/mL

Point of comparison: B5, Span 4300. Against it:
- B4 — higher, 4650
- B6 — higher, 5520
- B7 — higher, 64500
- B8 — higher, 72100
- B9 — higher, 73000
- B10 — higher, 70300
- B11 — higher, 65900
- B12 — higher, 71300
